Results as given in patent publication US20260035464A1 (STAIDSON BIOPHARMA, published 2026).

Experiments:
[1] = molecular target: T1, human BTLA (Uniprot Q7Z6A9) expressed on cells (human, UniProt Q7Z6A9 31-289); assay: cell-based or functional assay
[2] = molecular target: T1, human BTLA (Uniprot Q7Z6A9) expressed …; assay: cell-based or functional assay; remark: listed apart in the source
[3] = molecular target: T2, huBTLA as coated in the binding ELISA of Example 3 (tag not stated) (human, UniProt Q7Z6A9 31-157); assay: ELISA, huBTLA coated at 0.333 ug/mL, anti-human IgG Fc-AP detection
T2 construct: Detection was with anti-human IgG Fc
T2 sequence: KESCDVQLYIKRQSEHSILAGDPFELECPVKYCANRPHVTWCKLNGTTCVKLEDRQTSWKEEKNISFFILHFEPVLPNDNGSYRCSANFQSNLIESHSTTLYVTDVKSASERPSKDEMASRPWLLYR
Description: BTLA binding of purified recombinant chimeric antibodies by ELISA: The huBTLA and rhesus monkey BTLA antigen binding ELISA was performed on the purified recombinant chimeric antibodies. Briefly, 384-well, clear flat bottom high binding plates (Corning, cat #3700) were coated overnight at 4° C. with 0.333 μg/mL of huBTLA or rhesus monkey BTLA in PBS. The following purified process was performed as described in ELISA binding assay in Example 2, except that the secondary antibody was goat anti human IgG Fc-AP (Southern Biotech, cat #2014-04).

[4] = molecular target: T3, human BTLA extracellular domain with C-terminal mouse IgG2a Fc tag (human; mouse, UniProt Q7Z6A9 31-157); assay: blocking ELISA, huBTLA-mIgG2a Fc coated; competitor huHVEM-His (2 ug/ml)
T3 construct: also called huBTLA with mIgG2a Fc tag; not shown: mouse IgG2a Fc, C-terminal
T3 sequence: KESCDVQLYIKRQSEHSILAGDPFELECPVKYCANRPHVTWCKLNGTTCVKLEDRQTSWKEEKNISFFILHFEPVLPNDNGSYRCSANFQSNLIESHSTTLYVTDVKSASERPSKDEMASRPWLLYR
Description: HVEM blocking by purified recombinant chimeric antibodies by ELISA: Human HVEM (huHVEM) blocking ELISA was performed on purified recombinant chimeric anti-BTLA antibodies. Briefly, 384-well, clear flat bottom high binding plates (Corning, cat #3700) were coated overnight at 4° C. with 0.333 μg/mL purified huBTLA with mIgG2a Fc tag in PBS (coating solution). After removing the coating solution, the plates were blocked by adding blocking buffer and incubated at 37° C. for 1 hour. Plates were then washed 3 times with wash buffer. Serial dilution of purified chimeric antibodies in PBS were added to individual well followed by incubation at 37° C. for 1 hour. Plates were washed 3 times with wash buffer. Then 30 μL per well of 2 μg/ml human HVEM with His tag (Sino Biological, cat #10334-H08H) in assay buffer was added into the reaction and incubated for 1 hour. Plates were washed 3 times with wash buffer. Then 30 μL per well of mouse anti-his-AP (Southern Biotech, cat: 4603-04) at 1:500 dilution in ELISA diluent was added, and incubated at 37° C. for 30 min, then the plates were washed 5 times with wash buffer and developed for 30 minutes with 30 μL per well of pNPP substrate. Plates were analyzed with a Bio-TEK at 405 nm. The blocking IC₅₀ value represents the antibody concentration that inhibited 50% of huHVEM binding to coated human BTLA.

[5] = molecular target: T1, human BTLA (Uniprot Q7Z6A9) expressed …; assay: flow cytometry on Expi293 cells stably overexpressing huBTLA, PE anti-human Fc
Description: To examine the binding of the chimeric anti-BTLA antibodies to huBTLA overexpressing cells, Expi293 cells stably overexpressing huBTLA were used to perform FACS analysis. Briefly, the coding sequence of huBTLA (Uniprot, Q7Z6A9) was cloned into a lentiviral vector and the recombinant virus was packaged according to the instruction of the virus packaging kit (Lenti-X™ Packaging Single Shots, Cat #631275, Takada). The Expi293 cells were transduced with the recombinant virus.
Expi293 cells stably overexpressing huBTLA were incubated with the chimeric anti-BTLA antibodies 83F2 or 86B7 in PBS containing 0.5% BSA, 1 mM EDTA, and 0.1% sodium azide (FACS buffer) for 30 minutes at 4° C. The cells were washed, and then incubated with 10 nM phycoerythrin (PE) conjugated anti-Human Fc Ab (BioLegend, cat #409304) for 20 minutes at 4° C. Cells were washed and then analyzed by flow cytometry with Attune (ThermoFisher Scientific). Data were analyzed with FlowJo software. Antibody binding is represented as median fluorescence intensity (MFI).

B1: chimeric anti-BTLA antibody 86B7 (antibody, V domains shown)
VH: QVTLKESGPGILQPSQTLSLTCSFSGFSLSTFGMGVSWIRQPSGKGLEWLAHIYWDDDKRFNPSLKSRLSISKDTSNNQVFLKITTVDTADTATYYCARGNWDGETYFDYWGQGTTLTVSS
VL: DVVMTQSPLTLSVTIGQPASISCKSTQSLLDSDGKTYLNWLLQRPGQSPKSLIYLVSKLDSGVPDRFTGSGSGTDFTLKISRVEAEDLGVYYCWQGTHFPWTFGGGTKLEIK
- EC50 of recovery of IL-2 production, Raji-HVEM/Jurkat-BTLA coculture [1]: 0.554 nM
- EC50 of recovery of IL-2 production, Raji-HVEM/primary human T cell coculture [2]: 1.68 nM
- EC50 [3]: 0.0511 nM
- IC50 [4]: 1.02 nM
- EC50 [5]: 0.554 nM
